Laboratory results reported in PMC2919722.
Substitutions are numbered along the chain they refer to. Where two headings read alike, the source gives them in different places.

Key:
Experiment in all cases: EMSA
[1] = target: T1, MBD1 CXXC3 (UniProt Q9UIS9-5 252-344)
T1 sequence: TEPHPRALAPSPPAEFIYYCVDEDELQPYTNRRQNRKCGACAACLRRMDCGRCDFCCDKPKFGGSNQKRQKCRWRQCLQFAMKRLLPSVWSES

[2] = target: T2, GST-MBD1 MBD (1-161) (UniProt Q9UIS9 1-161)
T2 sequence: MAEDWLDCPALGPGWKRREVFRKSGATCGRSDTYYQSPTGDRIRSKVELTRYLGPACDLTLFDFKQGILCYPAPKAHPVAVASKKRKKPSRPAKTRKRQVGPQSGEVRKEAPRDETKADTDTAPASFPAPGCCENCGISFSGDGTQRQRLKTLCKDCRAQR

[3] = target: T2, GST-MBD1 MBD (1-161); remark: listed apart in the source
[4] = target: T2, GST-MBD1 MBD (1-161); remark: listed apart in the source
[5] = target: T2, GST-MBD1 MBD (1-161); remark: listed apart in the source
[6] = target: T2, GST-MBD1 MBD (1-161); remark: listed apart in the source

B1: TCGG, unmethylated (dsDNA)
DNA 1: ACATGCCTCATGTCGGACTTAACTGCAGCT
DNA 2: AGCTGCAGTTAAGTCCGACATGAGGCATGT
[1]
  binding result: binds

B2: CCGC, unmethylated (dsDNA)
DNA 1: B1 DNA 1 with T13C, G16C
DNA 2: B1 DNA 2 with C15G, A18G
[1]
  binding result: binds

B3: TGmCGCA, methylated (dsDNA)
DNA 1: B1 DNA 1 with G12T, T13G, G16C
DNA 2: B1 DNA 2 with C15G, A18C, C19A
modifications: 5mC at CpG, both strands (implied)
[2]
  binding result: binds

B4: TmCGG, methylated (dsDNA)
DNA 1: B1 DNA 1
DNA 2: B1 DNA 2
modifications: 5mC at CpG, both strands (implied)
[3]
  binding result: binds

B5: CCGG, unmethylated (dsDNA)
DNA 1: B1 DNA 1 with T13C
DNA 2: B1 DNA 2 with A18G
[1]
  binding result: binds

B6: GCGG, unmethylated (dsDNA)
DNA 1: B1 DNA 1 with T13G
DNA 2: B1 DNA 2 with A18C
[1]
  binding result: binds

B7: TTmCGCA, methylated (dsDNA)
DNA 1: B1 DNA 1 with G12T, G16C
DNA 2: B1 DNA 2 with C15G, C19A
modifications: 5mC at CpG, both strands (implied)
[4]
  binding result: binds

B8: ACGG, unmethylated (dsDNA)
DNA 1: B1 DNA 1 with T13A
DNA 2: B1 DNA 2 with A18T
[1]
  binding result: binds

B9: A/T run mutated, methylated (dsDNA)
DNA 1: B1 DNA 1 with T13C, T20C, A21G
DNA 2: B1 DNA 2 with T10C, A11G, A18G
modifications: 5mC at C14 and opposite strand CpG (implied)
[5]
  binding result: binds

B10: CCGA, unmethylated (dsDNA)
DNA 1: B1 DNA 1 with T13C, G16A
DNA 2: B1 DNA 2 with C15T, A18G
[1]
  binding result: binds

B11: CCGT, unmethylated (dsDNA)
DNA 1: B1 DNA 1 with T13C, G16T
DNA 2: B1 DNA 2 with C15A, A18G
[1]
  binding result: binds

B12: CmCGC, methylated (dsDNA)
DNA 1: B1 DNA 1 with T13C, G16C
DNA 2: B1 DNA 2 with C15G, A18G
modifications: 5mC at CpG, both strands (implied)
[6]
  binding result: binds
